Results taken from publication PMC9352680, “A comprehensive thermodynamic model for RNA binding by the Saccharomyces cerevisiae Pumilio protein PUF4”.

T1: PUF4 RNA-binding domain (Saccharomyces cerevisiae, UniProt P25339 537-888)
T1 sequence: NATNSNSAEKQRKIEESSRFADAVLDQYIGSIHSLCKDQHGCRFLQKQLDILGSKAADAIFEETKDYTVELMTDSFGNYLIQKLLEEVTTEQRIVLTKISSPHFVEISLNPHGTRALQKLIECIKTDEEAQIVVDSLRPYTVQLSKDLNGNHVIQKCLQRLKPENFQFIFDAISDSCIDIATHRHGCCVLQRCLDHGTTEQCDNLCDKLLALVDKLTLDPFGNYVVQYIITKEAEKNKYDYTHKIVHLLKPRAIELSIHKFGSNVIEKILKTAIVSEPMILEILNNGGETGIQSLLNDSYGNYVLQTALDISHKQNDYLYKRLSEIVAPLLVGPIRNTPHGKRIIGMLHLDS


target: T1, PUF4 RNA-binding domain; test: Mg; RNA-MaP; 20 mM Na-HEPES pH 7.4, 30 mM KOAc, 0.75 mM MgCl2, 0.1% Tween-20, 5% glycerol, 0.1 mg/mL BSA, 2 mM DTT; 25 C; 0.0125-409.6 nM protein; details: tags: N-His6-TEV cleaved; C-SNAP kept, Cy3B-labelled; label: tethered on chip by stalled RNA polymerase

Binder	Kd
UCUCUUUGUACAAUAGUCUCUU (ssRNA) [Ic_S1_P5E.1_K5.1_C5.1_H5.1_A5.1_[T5C]_[T6A]_F5.1_[T9A]_[A10G]_T5.1]	0.742 nM
UCUCUUUGUAUAUAAUUCUCUU (ssRNA) [Ic_S1_P5E.1_K5.1_C5.1_H5.1_A5.1_[T6A]_[A7T]_F5.1_[T8A]_[T9A]_[A10T]_T5.1]	4.21 nM
UCUCUUUGUACGACCAUCUCUU (ssRNA) [Ic_S1_P5E.1_K5.1_C5.1_H5.1_A5.1_[T5C]_[T6G]_F5.1_[T8C]_[T9C]_T5.1]	1000 nM
UCUCUUUGUACGUCUGUCUCUU (ssRNA) [Ic_S1_P5E.1_K5.1_C5.1_H5.1_A5.1_[T5C]_[T6G]_[A7T]_F5.1_[T8C]_[A10G]_T5.1]	697 nM
UCUCUUUGUAUCGCUGUCUCUU (ssRNA) [Ic_S1_P5E.1_K5.1_C5.1_H5.1_A5.1_[T6C]_[A7G]_F5.1_[T8C]_[A10G]_T5.1]	978 nM
UCUCUUUGUACACGCGUCUCUU (ssRNA) [Ic_S1_P5E.1_K5.1_C5.1_H5.1_A5.1_[T5C]_[T6A]_[A7C]_F5.1_[T8G]_[T9C]_[A10G]_T5.1]	709 nM
UCUCUUUGUACCUAUUUCUCUU (ssRNA) [Ic_S1_P5E.1_K5.1_C5.1_H5.1_A5.1_[T5C]_[T6C]_[A7T]_F5.1_[T8A]_[A10T]_T5.1]	48.7 nM
UCUCUUUGUAUACGGCUCUCUU (ssRNA) [Ic_S1_P5E.1_K5.1_C5.1_H5.1_A5.1_[T6A]_[A7C]_F5.1_[T8G]_[T9G]_[A10C]_T5.1]	460 nM
UCUCUUUGUAUUGCCUUCUCUU (ssRNA) [Ic_S1_P5E.1_K5.1_C5.1_H5.1_A5.1_[A7G]_F5.1_[T8C]_[T9C]_[A10T]_T5.1]	652 nM
UCUCUUUGUAGCCCAUUCUCUU (ssRNA) [Ic_S1_P5E.1_K5.1_C5.1_H5.1_A5.1_[T5G]_[T6C]_[A7C]_F5.1_[T8C]_[T9A]_[A10T]_T5.1]	1530 nM
UCUCUUUGUAACGAUGUCUCUU (ssRNA) [Ic_S1_P5E.1_K5.1_C5.1_H5.1_A5.1_[T5A]_[T6C]_[A7G]_F5.1_[T8A]_[A10G]_T5.1]	1000 nM
UCUCUUUGUACACACCUCUCUU (ssRNA) [Ic_S1_P5E.1_K5.1_C5.1_H5.1_A5.1_[T5C]_[T6A]_[A7C]_F5.1_[T8A]_[T9C]_[A10C]_T5.1]	76.8 nM
UCUCUUUGUAUAUUGUCUCUU (ssRNA) [Ic_S1_P4E.1_K4.1_C4.1_H4.1_A4.1_F4.1_[A9G]_T4.1]	3.06 nM
UCUCUUUGUAACCUUUUCUCUU (ssRNA) [Ic_S1_P5E.1_K5.1_C5.1_H5.1_A5.1_[T5A]_[T6C]_[A7C]_F5.1_[A10T]_T5.1]	49.8 nM
UCUCUUUGUAGCCUCAUCUCUU (ssRNA) [Ic_S1_P5E.1_K5.1_C5.1_H5.1_A5.1_[T5G]_[T6C]_[A7C]_F5.1_[T9C]_T5.1]	721 nM
UCUCUUUGUAAAUCCCUCUCUU (ssRNA) [Ic_S1_P5E.1_K5.1_C5.1_H5.1_A5.1_[T5A]_[T6A]_[A7T]_F5.1_[T8C]_[T9C]_[A10C]_T5.1]	240 nM
UCUCUUUGUAUCCAUUUCUCUU (ssRNA) [Ic_S1_P5E.1_K5.1_C5.1_H5.1_A5.1_[T6C]_[A7C]_F5.1_[T8A]_[A10T]_T5.1]	119 nM
UCUCUUUGUAAUGGUCUCUCUU (ssRNA) [Ic_S1_P5E.1_K5.1_C5.1_H5.1_A5.1_[T5A]_[A7G]_F5.1_[T8G]_[A10C]_T5.1]	1800 nM
UCUCUUUGUAAUAUGGUCUCUU (ssRNA) [Ic_S1_P5E.1_K5.1_C5.1_H5.1_A5.1_[T5A]_F5.1_[T9G]_[A10G]_T5.1]	10.1 nM
UCUCUUUGUAAGUAAAUCUCUU (ssRNA) [Ic_S1_P5E.1_K5.1_C5.1_H5.1_A5.1_[T5A]_[T6G]_[A7T]_F5.1_[T8A]_[T9A]_T5.1]	2150 nM

Binder	Kd
UCUCUUUGUAUCGAUGUCUCUU (ssRNA) [Ic_S1_P5E.1_K5.1_C5.1_H5.1_A5.1_[T6C]_[A7G]_F5.1_[T8A]_[A10G]_T5.1]	859 nM
UCUCUUUGUACUUCCCUCUCUU (ssRNA) [Ic_S1_P5E.1_K5.1_C5.1_H5.1_A5.1_[T5C]_[A7T]_F5.1_[T8C]_[T9C]_[A10C]_T5.1]	782 nM
UCUCUUUGUAUAAACGUCUCUU (ssRNA) [Ic_S1_P5E.1_K5.1_C5.1_H5.1_A5.1_[T6A]_F5.1_[T8A]_[T9C]_[A10G]_T5.1]	378 nM
UCUCUUUGUAUAUGAAUCUCUU (ssRNA) [Ic_S1_P5E.1_K5.1_C5.1_H5.1_A5.1_[T6A]_[A7T]_F5.1_[T8G]_[T9A]_T5.1]	19.4 nM
UCUCUUUGUAACGGCCUCUCUU (ssRNA) [Ic_S1_P5E.1_K5.1_C5.1_H5.1_A5.1_[T5A]_[T6C]_[A7G]_F5.1_[T8G]_[T9C]_[A10C]_T5.1]	> 2300 nM
UCUCUUUGUAACUAAAUCUCUU (ssRNA) [Ic_S1_P5E.1_K5.1_C5.1_H5.1_A5.1_[T5A]_[T6C]_[A7T]_F5.1_[T8A]_[T9A]_T5.1]	506 nM
UCUCUUUGUAACGUCUUCUCUU (ssRNA) [Ic_S1_P5E.1_K5.1_C5.1_H5.1_A5.1_[T5A]_[T6C]_[A7G]_F5.1_[T9C]_[A10T]_T5.1]	2100 nM
UCUCUUUGUAUUUAAAUCUCUU (ssRNA) [Ic_S1_P5E.1_K5.1_C5.1_H5.1_A5.1_[A7T]_F5.1_[T8A]_[T9A]_T5.1]	106 nM
UCUCUUUGUAUAGCAUUCUCUU (ssRNA) [Ic_S1_P5E.1_K5.1_C5.1_H5.1_A5.1_[T6A]_[A7G]_F5.1_[T8C]_[T9A]_[A10T]_T5.1]	32.4 nM
UCUCUUUGUAACUAUCUCUCUU (ssRNA) [Ic_S1_P5E.1_K5.1_C5.1_H5.1_A5.1_[T5A]_[T6C]_[A7T]_F5.1_[T8A]_[A10C]_T5.1]	113 nM
UCUCUUUGUACCUCCCUCUCUU (ssRNA) [Ic_S1_P5E.1_K5.1_C5.1_H5.1_A5.1_[T5C]_[T6C]_[A7T]_F5.1_[T8C]_[T9C]_[A10C]_T5.1]	414 nM
UCUCUUUGUAUAUCCUUCUCUU (ssRNA) [Ic_S1_P5E.1_K5.1_C5.1_H5.1_A5.1_[T6A]_[A7T]_F5.1_[T8C]_[T9C]_[A10T]_T5.1]	24 nM
UCUCUUUGUAUACCGGUCUCUU (ssRNA) [Ic_S1_P5E.1_K5.1_C5.1_H5.1_A5.1_[T6A]_[A7C]_F5.1_[T8C]_[T9G]_[A10G]_T5.1]	470 nM
UCUCUUGGUAUUUAUCUCUU (ssRNA) [Ib_S1_P3E.1_K3.1_C3.1_H3.1_[T1G]_A3.1_[A6T]_F3.1_T3.1]	> 2300 nM
UCUCUUUGUAGCUACGUCUCUU (ssRNA) [Ic_S1_P5E.1_K5.1_C5.1_H5.1_A5.1_[T5G]_[T6C]_[A7T]_F5.1_[T8A]_[T9C]_[A10G]_T5.1]	> 2300 nM
UCUCUUAGUAUGUAUCUCUU (ssRNA) [Ib_S1_P3E.1_K3.1_C3.1_H3.1_[T1A]_A3.1_[A6G]_F3.1_T3.1]	381 nM
UCUCUUUGUACUCCCUUCUCUU (ssRNA) [Ic_S1_P5E.1_K5.1_C5.1_H5.1_A5.1_[T5C]_[A7C]_F5.1_[T8C]_[T9C]_[A10T]_T5.1]	496 nM
UCUCUUGGUAUGUAUCUCUU (ssRNA) [Ib_S1_P3E.1_K3.1_C3.1_H3.1_[T1G]_A3.1_[A6G]_F3.1_T3.1]	723 nM
UCUCUUUGUAACUCAGUCUCUU (ssRNA) [Ic_S1_P5E.1_K5.1_C5.1_H5.1_A5.1_[T5A]_[T6C]_[A7T]_F5.1_[T8C]_[T9A]_[A10G]_T5.1]	175 nM
UCUCUUUGUAUAUAUUUCUCUU (ssRNA) [Ic_S1_P5E.1_K5.1_C5.1_H5.1_A5.1_[T6A]_[A7T]_F5.1_[T8A]_[A10T]_T5.1]	7.35 nM

Binder	Kd
UCUCUUUGUAAUGGUUUCUCUU (ssRNA) [Ic_S1_P5E.1_K5.1_C5.1_H5.1_A5.1_[T5A]_[A7G]_F5.1_[T8G]_[A10T]_T5.1]	1060 nM
UCUCUUUGUAUCCAGUUCUCUU (ssRNA) [Ic_S1_P5E.1_K5.1_C5.1_H5.1_A5.1_[T6C]_[A7C]_F5.1_[T8A]_[T9G]_[A10T]_T5.1]	1040 nM
UCUCUUUGUAAAACACUCUCUU (ssRNA) [Ic_S1_P5E.1_K5.1_C5.1_H5.1_A5.1_[T5A]_[T6A]_F5.1_[T8C]_[T9A]_[A10C]_T5.1]	56.4 nM
UCUCUUUGUACUGUAAUCUCUU (ssRNA) [Ic_S1_P5E.1_K5.1_C5.1_H5.1_A5.1_[T5C]_[A7G]_F5.1_[T9A]_T5.1]	7.89 nM
UCUCUUUGUAUGUCAUUCUCUU (ssRNA) [Ic_S1_P5E.1_K5.1_C5.1_H5.1_A5.1_[T6G]_[A7T]_F5.1_[T8C]_[T9A]_[A10T]_T5.1]	297 nM
UCUCUUUGUACUCUCUUCUCUU (ssRNA) [Ic_S1_P5E.1_K5.1_C5.1_H5.1_A5.1_[T5C]_[A7C]_F5.1_[T9C]_[A10T]_T5.1]	295 nM
UCUCUUUGUAUAUACGUCUCUU (ssRNA) [Ic_S1_P5E.1_K5.1_C5.1_H5.1_A5.1_[T6A]_[A7T]_F5.1_[T8A]_[T9C]_[A10G]_T5.1]	14.9 nM
UCUCUUUGUAUGGCUCUCUCUU (ssRNA) [Ic_S1_P5E.1_K5.1_C5.1_H5.1_A5.1_[T6G]_[A7G]_F5.1_[T8C]_[A10C]_T5.1]	> 2300 nM
UCUCUUUGUAGCCUUUUCUCUU (ssRNA) [Ic_S1_P5E.1_K5.1_C5.1_H5.1_A5.1_[T5G]_[T6C]_[A7C]_F5.1_[A10T]_T5.1]	470 nM
UCUCUUCGUAUUUAUCUCUU (ssRNA) [Ib_S1_P3E.1_K3.1_C3.1_H3.1_[T1C]_A3.1_[A6T]_F3.1_T3.1]	> 2300 nM
UCUCUUUGUAUCCUAUUCUCUU (ssRNA) [Ic_S1_P5E.1_K5.1_C5.1_H5.1_A5.1_[T6C]_[A7C]_F5.1_[T9A]_[A10T]_T5.1]	5.11 nM
UCUCUUUGUAUGUAAAUCUCUU (ssRNA) [Ic_S1_P5E.1_K5.1_C5.1_H5.1_A5.1_[T6G]_[A7T]_F5.1_[T8A]_[T9A]_T5.1]	92.9 nM
UCUCUUUGUAUUCCUCUCUCUU (ssRNA) [Ic_S1_P5E.1_K5.1_C5.1_H5.1_A5.1_[A7C]_F5.1_[T8C]_[A10C]_T5.1]	132 nM
UCUCUUUGUACCCCGGUCUCUU (ssRNA) [Ic_S1_P5E.1_K5.1_C5.1_H5.1_A5.1_[T5C]_[T6C]_[A7C]_F5.1_[T8C]_[T9G]_[A10G]_T5.1]	> 2300 nM
UCUCUUUGUACAUUCGUCUCUU (ssRNA) [Ic_S1_P5E.1_K5.1_C5.1_H5.1_A5.1_[T5C]_[T6A]_[A7T]_F5.1_[T9C]_[A10G]_T5.1]	9.95 nM
UCUCUUUGUAUCAGCCUCUCUU (ssRNA) [Ic_S1_P5E.1_K5.1_C5.1_H5.1_A5.1_[T6C]_F5.1_[T8G]_[T9C]_[A10C]_T5.1]	918 nM
UCUCUUCGUAUGUAUCUCUU (ssRNA) [Ib_S1_P3E.1_K3.1_C3.1_H3.1_[T1C]_A3.1_[A6G]_F3.1_T3.1]	932 nM
UCUCUUUGUACUCUAUUCUCUU (ssRNA) [Ic_S1_P5E.1_K5.1_C5.1_H5.1_A5.1_[T5C]_[A7C]_F5.1_[T9A]_[A10T]_T5.1]	3.85 nM
UCUCUUUGUAGUAAUUUCUCUU (ssRNA) [Ic_S1_P5E.1_K5.1_C5.1_H5.1_A5.1_[T5G]_F5.1_[T8A]_[A10T]_T5.1]	1270 nM
